Data as given in patent US20080249083.

T1: amyloid β(3-11)
T1 chain: EFRHDSGYE


Target: T1, amyloid β(3-11)

Protein	conversion of Aβ(3-11) into pGlu-Aβ(3-11), Maldi-Tof mass spectrometry
YSShisoQCI55NC351A C-His (human isoQC expressed in P. pastoris) (protein) FYTIWSGWHRRTEELPLGRELRVPLNGSLPEARLRRVVGQLDPQRLWSTYLRPLLVVRTPGSPGNLQVRKFLEATLRSLTAGWHVELDPFTASTPLGPVDFGNVVATLDPRAARHLTLACHYDSKLFPPGSTPFVGATDSAVPCALLLELAQALDLELSRAKKQAAPVTLQLLFLDGEEALKEWGPKDSLYGSRHLAQLMESIPHSPGPTRIQAIELFMLLDLLGAPNPTFYSHFPRTVRWFHRLRSIEKRLHRLNLLQSHPQEVMYFQPGEPFGSVEDDHIPFLRRGVPVLHLISTPFPAVWHTPADTEVNLHPPTVHNLARILAVFLAEYLGLHHHHHH	human QC and human isoQC (YSShisoQCI55NC351A C-His) catalyze the conversion of Aβ(3-11) into pGlu-Aβ(3-11); the conversion of N-terminal glutamic acid by hisoQC is much slower compared with hQC
human QC (glutaminyl cyclase, QPCT) (protein) VSPSASAWPEEKNYHQPAILNSSALRQIAEGTSISEMWQNDLQPLLIERYPGSPGSYAARQHIMQRIQRLQADWVLEIDTFLSQTPYGYRSFSNIISTLNPTAKRHLVLACHYDSKYFSHWNNRVFVGATDSAVPCAMMLELARALDKKLLSLKTVSDSKPDLSLQLIFFDGEEAFLHWSPQDSLYGSRHLAAKMASTPHPPGARGTSQLHGMDLLVLLDLIGAPNPTFPNFFPNSARWFERLQAIEHELHELGLLKDHSLEGRYFQNYSYGGVIQDDHIPFLRRGVPVLHLIPSPFPEVWHTMDDNEENLDESTIDNLNKILQVFVLEYLHL	human QC and human isoQC (YSShisoQCI55NC351A C-His) catalyze the conversion of Aβ(3-11) into pGlu-Aβ(3-11)
